{
  "source": "paper PMC2907653",
  "proteins": {"B1": {"name": "C. elegans scavenger decapping enzyme (DcpS) (Caenorhabditis elegans) (protein)", "chain": "MKRIADEELVREERAEESTQKWLQDAKFQEILGADSSHKSLFVLLSHPDGSQGILLANKSPFSEEKSDIEKLLATAQLQEISRNDIFGSYNIEIDPKLNLLKSQLIYPINDRLIAKYRQEEKFVIRETPELYETVTRPYIEKYQLNLNWVYNCLEKRSEVDKIVFEDPDNENGFVLLQDIKWDGKTLENLYVLAICHRHGLKSVRDLTGDDLEMLYNMRDKSLEAINQKYGLKTDQIKCYFHYQPSFYHLHVHFINLKYDAPASTTMSAILLDDVINNLELNPEHYKKSTLTFTRKNGDKLMEMFREALKN"}},
  "key": {"[1]": {"substrate": "CN(C)c1nc2c(c(=O)[nH]1)[n+](C)cn2[C@@H]1O[C@H](COP(=O)(O)OP(=O)(O)OP(=O)(O)OC[C@H]2O[C@@H](n3cnc4c(=O)[nH]c(N)nc43)[C@H](O)[C@@H]2O)[C@@H](O)[C@H]1O", "test": "fluorimetric and HPLC hydrolysis kinetics", "assay_type": "biochemical, Caenorhabditis elegans", "conditions": "cleaved between β and γ phosphates; cap-binding pocket; pH 7.2; 20.0 °C"}, "purified protein [2]": {"substrate": "CC[n+]1cn([C@@H]2O[C@H](COP(=O)(O)OP(=O)(O)OP(=O)(O)OC[C@H]3O[C@@H](n4cnc5c(=O)[nH]c(N)nc54)[C@H](O)[C@@H]3O)[C@@H](O)[C@H]2O)c2nc(N)[nH]c(=O)c21", "test": "purified protein", "conditions": "cleaved between β and γ phosphates; cap-binding pocket; pH 7.2; 20.0 °C"}, "purified protein [3]": {"substrate": "CN(C)c1nc2c(c(=O)[nH]1)[n+](C)cn2[C@@H]1O[C@H](COP(=O)(O)OP(=O)(O)OP(=O)(O)OC[C@H]2O[C@@H](n3cnc4c(N)ncnc43)[C@H](O)[C@@H]2O)[C@@H](O)[C@H]1O", "test": "purified protein", "conditions": "cleaved between β and γ phosphates; pH 7.2; 20.0 °C"}, "purified protein [4]": {"substrate": "CNc1ncnc2c1ncn2[C@@H]1O[C@H](COP(=O)(O)OP(=O)(O)OP(=O)(O)OC[C@H]2O[C@@H](n3c[n+](C)c4c(=O)[nH]c(N)nc43)[C@H](O)[C@@H]2O)[C@@H](O)[C@H]1O", "test": "purified protein", "conditions": "cleaved between β and γ phosphates; pH 7.2; 20.0 °C"}, "purified protein [5]": {"substrate": "CO[C@@H]1[C@H](O)[C@@H](COP(=O)(O)OP(=O)(O)OP(=O)(O)OC[C@H]2O[C@@H](n3c[n+](C)c4c(=O)[nH]c(N)nc43)[C@H](O)[C@@H]2O)O[C@H]1n1cnc2c(=O)[nH]c(N)nc21", "test": "purified protein", "conditions": "cleaved between β and γ phosphates; pH 7.2; 20.0 °C"}, "purified protein [6]": {"substrate": "C[n+]1cn([C@@H]2O[C@H](COP(=O)(O)OP(=O)(O)OP(=O)(O)OC[C@H]3O[C@@H](n4c[n+](C)c5c(=O)[nH]c(N)nc54)[C@H](O)[C@@H]3O)[C@@H](O)[C@H]2O)c2nc(N)[nH]c(=O)c21", "test": "purified protein", "conditions": "cleaved between β and γ phosphates; pH 7.2; 20.0 °C"}, "purified protein [7]": {"substrate": "C[n+]1cn([C@@H]2O[C@H](COP(=O)(O)OP(=O)(O)OP(=O)(O)OC[C@H]3O[C@@H](n4cnc5c(=O)[nH]c(N)nc54)C[C@@H]3O)[C@@H](O)[C@H]2O)c2nc(N)[nH]c(=O)c21", "test": "purified protein", "conditions": "cleaved between β and γ phosphates; pH 7.2; 20.0 °C"}, "purified protein [8]": {"substrate": "C[n+]1cn([C@@H]2O[C@H](COP(=O)(O)OP(=O)(O)OP(=O)(O)OC[C@H]3O[C@@H](n4cnc5c(=O)[nH]c(N)nc54)[C@H](O)[C@@H]3O)[C@@H](O)[C@H]2O)c2nc(N)[nH]c(=O)c21", "test": "purified protein", "conditions": "cleaved between β and γ phosphates; cap-binding pocket; pH 7.2; 20.0 °C"}, "purified protein [9]": {"substrate": "C[n+]1cn([C@@H]2O[C@H](COP(=O)(O)OP(=O)(O)OP(=O)(O)OC[C@H]3O[C@@H](n4cnc5c(N)ncnc54)[C@H](O)[C@@H]3O)[C@@H](O)[C@H]2O)c2nc(N)[nH]c(=O)c21", "test": "purified protein", "conditions": "cleaved between β and γ phosphates; pH 7.2; 20.0 °C"}, "purified protein [10]": {"substrate": "Nc1nc2c(ncn2[C@@H]2O[C@H](COP(=O)(O)OP(=O)(O)OP(=O)(O)OC[C@H]3O[C@@H](n4c[n+](Cc5ccccc5)c5c(=O)[nH]c(N)nc54)[C@H](O)[C@@H]3O)[C@@H](O)[C@H]2O)c(=O)[nH]1", "test": "purified protein", "conditions": "cleaved between β and γ phosphates; cap-binding pocket; pH 7.2; 20.0 °C"}},
  "data": [
    {"protein": "B1", "values": [
      {"measurement": "Km", "setting": "[1]", "result": 3.85, "unit": "µM"},
      {"measurement": "Vmax", "setting": "[1]", "result": 4.65, "unit": "µmol/min/mg"},
      {"measurement": "Km", "setting": "purified protein [2]", "result": 0.61, "unit": "µM"},
      {"measurement": "Vmax", "setting": "purified protein [2]", "result": 3.12, "unit": "µmol/min/mg"},
      {"measurement": "Km", "setting": "purified protein [3]", "result": 2.36, "unit": "µM"},
      {"measurement": "Vmax", "setting": "purified protein [3]", "result": 2.06, "unit": "µmol/min/mg"},
      {"measurement": "Km", "setting": "purified protein [4]", "result": 1.03, "unit": "µM"},
      {"measurement": "Vmax", "setting": "purified protein [4]", "result": 1.33, "unit": "µmol/min/mg"},
      {"measurement": "Km", "setting": "purified protein [5]", "result": 1.23, "unit": "µM"},
      {"measurement": "Vmax", "setting": "purified protein [5]", "result": 1.66, "unit": "µmol/min/mg"},
      {"measurement": "Km", "setting": "purified protein [6]", "result": 1.12, "unit": "µM"},
      {"measurement": "Vmax", "setting": "purified protein [6]", "result": 0.91, "unit": "µmol/min/mg"},
      {"measurement": "Km", "setting": "purified protein [7]", "result": 1.36, "unit": "µM"},
      {"measurement": "Vmax", "setting": "purified protein [7]", "result": 2, "unit": "µmol/min/mg"},
      {"measurement": "Km", "setting": "purified protein [8]", "result": 1.17, "unit": "µM"},
      {"measurement": "Vmax", "setting": "purified protein [8]", "result": 1.53, "unit": "µmol/min/mg"},
      {"measurement": "Km", "setting": "purified protein [9]", "result": 0.6, "unit": "µM"},
      {"measurement": "Vmax", "setting": "purified protein [9]", "result": 1.09, "unit": "µmol/min/mg"},
      {"measurement": "Km", "setting": "purified protein [10]", "result": 1.83, "unit": "µM"},
      {"measurement": "Vmax", "setting": "purified protein [10]", "result": 3.06, "unit": "µmol/min/mg"}
    ]}
  ]
}
